The values that follow come from the supplement of paper PMC9112550, “Optimization of the antimicrobial peptide Bac7 by deep mutational scanning” (BMC Biology, 2022).
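Note: peptides expressed intracellularly from a pBAD plasmid library in pooled LB shake-flask culture, induced with 0.3% L-arabinose, DNA abundance read by NGS, three biological replicates, DESeq2 with apeglm shrinkage.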

The subject of the series is Escherichia coli TOP10. The experiment in a line: shrunken log2 fold change of peptide-encoding DNA abundance (4.5 h post-induction vs induction); higher = less antimicrobial activity (less host growth inhibition). Conditions: time post-induction: 4.5 h; library: site-saturation at positions 5, 18, 19, 20.
For RRIRRRPPRLPRPRPRPSLMPRP, the “shrunken log2 fold change” value is -0.0626.
Under RRIRLRPPRLPRPRPRPSDSPRP stands -0.498; under RRIRERPPRLPRPRPRPLNNPRP, -0.705; under RRIRVRPPRLPRPRPRPWTRPRP, -0.0486.
For the sequence RRIRWRPPRLPRPRPRPVIWPRP, the “shrunken log2 fold change” value was determined as 0.147.
As to RRIRPRPPRLPRPRPRPPFLPRP, the “shrunken log2 fold change” value was 0.188.
With RRIRCRPPRLPRPRPRPFNKPRP, the “shrunken log2 fold change” value is -0.305.
Take RRIRLRPPRLPRPRPRPYHHPRP: the “shrunken log2 fold change” value is -0.398.
Under RRIRMRPPRLPRPRPRPVPWPRP stands 0.581; under RRIRWRPPRLPRPRPRPQQMPRP, -0.128.
On to RRIRIRPPRLPRPRPRPMQNPRP, for which the “shrunken log2 fold change” value stood at 0.112.
For RRIRMRPPRLPRPRPRPKFVPRP, the “shrunken log2 fold change” value stood at 0.0832.
Take RRIRGRPPRLPRPRPRPDSFPRP: the “shrunken log2 fold change” value was found to be 0.00128.
With RRIRPRPPRLPRPRPRPMVNPRP, the “shrunken log2 fold change” value was -0.0636.
Under RRIRYRPPRLPRPRPRPNSCPRP stands 0.0432; under RRIRCRPPRLPRPRPRPQEWPRP, 0.00898.
Under RRIRPRPPRLPRPRPRPTLAPRP stands 0.332; under RRIRPRPPRLPRPRPRPFCNPRP, -0.609; under RRIRHRPPRLPRPRPRPHWWPRP, 0.0507.
RRIRYRPPRLPRPRPRPAVQPRP: the “shrunken log2 fold change” value was -0.505.
For RRIRPRPPRLPRPRPRPCAQPRP, the “shrunken log2 fold change” value was -0.119.
Under RRIRARPPRLPRPRPRPSSVPRP stands -0.0486; under RRIRKRPPRLPRPRPRPPEIPRP, 0.131; under RRIRTRPPRLPRPRPRPRVLPRP, 0.242.
Regarding RRIRNRPPRLPRPRPRPFGYPRP, the “shrunken log2 fold change” value was -0.377.
Under RRIRYRPPRLPRPRPRPFKLPRP stands -0.0907; under RRIRARPPRLPRPRPRPCPYPRP, -0.359; under RRIRARPPRLPRPRPRPAQEPRP, 0.582.
As to RRIRIRPPRLPRPRPRPAIDPRP, the “shrunken log2 fold change” value is -0.239.
For the sequence RRIRRRPPRLPRPRPRPDMNPRP, the “shrunken log2 fold change” value was -0.00608.
Under RRIRGRPPRLPRPRPRPRQMPRP stands -0.0496; under RRIRVRPPRLPRPRPRPGIQPRP, 0.0729.
Regarding RRIRIRPPRLPRPRPRPQWAPRP, the “shrunken log2 fold change” value came to 0.0405.
With RRIRTRPPRLPRPRPRPMLTPRP, the “shrunken log2 fold change” value was found to be 0.21.
In the case of RRIRWRPPRLPRPRPRPCDNPRP, the “shrunken log2 fold change” value was 0.0838.
As to RRIRTRPPRLPRPRPRPRPYPRP, the “shrunken log2 fold change” value is -0.223.
Regarding RRIRPRPPRLPRPRPRPAIIPRP, the “shrunken log2 fold change” value is -0.112.
RRIRWRPPRLPRPRPRPRWRPRP: the “shrunken log2 fold change” value stood at 0.552.
On to RRIRARPPRLPRPRPRPTSGPRP, for which the “shrunken log2 fold change” value was 0.343.
Under RRIRPRPPRLPRPRPRPLETPRP stands 0.151; under RRIRERPPRLPRPRPRPKCYPRP, -1.04; under RRIRDRPPRLPRPRPRPHQYPRP, 0.0144.
With RRIRARPPRLPRPRPRPGMSPRP, the “shrunken log2 fold change” value amounted to 0.649.
Under RRIRIRPPRLPRPRPRPTHKPRP stands 0.201; under RRIRFRPPRLPRPRPRPTFGPRP, 0.0623; under RRIRKRPPRLPRPRPRPTAPPRP, 1.05.
For the sequence RRIRQRPPRLPRPRPRPCYLPRP, the “shrunken log2 fold change” value is -0.195.
As for RRIRDRPPRLPRPRPRPMMHPRP, the “shrunken log2 fold change” value came out at 0.937.
Under RRIRSRPPRLPRPRPRPVNDPRP stands -0.389; under RRIRVRPPRLPRPRPRPFWRPRP, 0.0595; under RRIRGRPPRLPRPRPRPIICPRP, 0.026.
Consider RRIRKRPPRLPRPRPRPFSLPRP, for which the “shrunken log2 fold change” value is -0.189.
As to RRIRARPPRLPRPRPRPKMNPRP, the “shrunken log2 fold change” value was found to be 0.0254.
For RRIRMRPPRLPRPRPRPYDIPRP, the “shrunken log2 fold change” value is 0.0444.
Under RRIRYRPPRLPRPRPRPDTDPRP stands -0.02; under RRIRDRPPRLPRPRPRPIKQPRP, -0.00204.
For the sequence RRIRLRPPRLPRPRPRPTERPRP, the “shrunken log2 fold change” value is -0.189.
RRIRDRPPRLPRPRPRPCESPRP: the “shrunken log2 fold change” value is -0.00192.
In the case of RRIRPRPPRLPRPRPRPNQSPRP, the “shrunken log2 fold change” value was -0.247.
Under RRIRYRPPRLPRPRPRPDFGPRP stands -0.251; under RRIRTRPPRLPRPRPRPYQWPRP, -0.216; under RRIRGRPPRLPRPRPRPPAVPRP, 1.27.
As to RRIRMRPPRLPRPRPRPFLNPRP, the “shrunken log2 fold change” value is -0.247.
On to RRIRNRPPRLPRPRPRPCGVPRP, for which the “shrunken log2 fold change” value was -0.00664.
Under RRIRKRPPRLPRPRPRPCEYPRP stands 0.0394; under RRIRRRPPRLPRPRPRPQRHPRP, -0.0855.
For the sequence RRIRNRPPRLPRPRPRPQSCPRP, the “shrunken log2 fold change” value was -0.00689.
Turning to RRIRRRPPRLPRPRPRPSFQPRP, the “shrunken log2 fold change” value stood at 0.0356.
With RRIRTRPPRLPRPRPRPKTMPRP, the “shrunken log2 fold change” value is -0.0972.
As to RRIRPRPPRLPRPRPRPTCAPRP, the “shrunken log2 fold change” value stood at 0.268.
As for RRIRTRPPRLPRPRPRPFCLPRP, the “shrunken log2 fold change” value was -0.278.
Regarding RRIRKRPPRLPRPRPRPPPRPRP, the “shrunken log2 fold change” value turned out to be 1.32.
For RRIRFRPPRLPRPRPRPYSEPRP, the “shrunken log2 fold change” value is -0.297.
Under RRIRHRPPRLPRPRPRPGHRPRP stands -0.0928.
In the case of RRIRFRPPRLPRPRPRPCFKPRP, the “shrunken log2 fold change” value is -0.426.
Under RRIRLRPPRLPRPRPRPLDHPRP stands -0.1; under RRIRERPPRLPRPRPRPIRKPRP, -0.108.
In the case of RRIRQRPPRLPRPRPRPEYTPRP, the “shrunken log2 fold change” value was -0.11.
Under RRIRPRPPRLPRPRPRPCWNPRP stands -0.0418; under RRIRTRPPRLPRPRPRPEICPRP, -0.0438.
In the case of RRIRPRPPRLPRPRPRPMAEPRP, the “shrunken log2 fold change” value turned out to be 0.106.
Turning to RRIRMRPPRLPRPRPRPTCHPRP, the “shrunken log2 fold change” value stood at 0.317.
For the sequence RRIRFRPPRLPRPRPRPHCMPRP, the “shrunken log2 fold change” value was -0.371.
Under RRIRNRPPRLPRPRPRPLPCPRP stands -0.207.
As for RRIRDRPPRLPRPRPRPPPWPRP, the “shrunken log2 fold change” value is 0.788.
Under RRIRARPPRLPRPRPRPMVDPRP stands 0.299.
For the sequence RRIRRRPPRLPRPRPRPNMEPRP, the “shrunken log2 fold change” value worked out at 0.0673.
Under RRIRLRPPRLPRPRPRPRVDPRP stands -0.0238; under RRIRIRPPRLPRPRPRPTCIPRP, -0.193; under RRIRDRPPRLPRPRPRPSHTPRP, -0.436.
With RRIRQRPPRLPRPRPRPKHHPRP, the “shrunken log2 fold change” value was -0.391.
